Where two headings read alike, the source gives them in different places.
T1: recombinant cyno IL1RAP ECD (cynomolgus monkey, UniProt P59822 21-367 (rhesus entry))
T1 construct: also called rcynoIL1RAP
T1 sequence: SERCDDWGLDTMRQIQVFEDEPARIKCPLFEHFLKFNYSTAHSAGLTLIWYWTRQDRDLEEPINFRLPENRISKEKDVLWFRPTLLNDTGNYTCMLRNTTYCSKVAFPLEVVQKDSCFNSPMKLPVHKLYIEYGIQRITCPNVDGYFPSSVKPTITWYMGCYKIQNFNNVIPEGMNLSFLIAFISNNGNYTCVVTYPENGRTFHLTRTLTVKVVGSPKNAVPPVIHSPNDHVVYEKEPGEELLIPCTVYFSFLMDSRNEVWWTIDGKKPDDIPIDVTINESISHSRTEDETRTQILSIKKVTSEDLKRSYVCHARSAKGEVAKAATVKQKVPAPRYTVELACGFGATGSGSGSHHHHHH

T2: cyno IL1RAP ECD displayed on HEK-293F cells (pDisplay) (cynomolgus monkey, UniProt P59822 21-367 (rhesus entry))
T2 sequence: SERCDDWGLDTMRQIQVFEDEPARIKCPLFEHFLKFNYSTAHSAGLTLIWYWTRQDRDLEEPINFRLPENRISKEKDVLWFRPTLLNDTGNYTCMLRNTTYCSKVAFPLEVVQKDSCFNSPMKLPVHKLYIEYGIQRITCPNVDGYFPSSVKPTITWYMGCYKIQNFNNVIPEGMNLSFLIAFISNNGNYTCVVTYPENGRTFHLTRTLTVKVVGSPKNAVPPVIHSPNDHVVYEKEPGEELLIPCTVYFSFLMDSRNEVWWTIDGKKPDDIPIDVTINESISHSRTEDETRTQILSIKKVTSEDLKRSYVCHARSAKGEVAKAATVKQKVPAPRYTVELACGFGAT

T3: human IL1RAP ECD displayed on HEK-293F cells (pDisplay) (human, UniProt Q9NPH3 21-367)
T3 construct: also called Human clone HE2 IL1RAP FL-ECD cell line
T3 sequence: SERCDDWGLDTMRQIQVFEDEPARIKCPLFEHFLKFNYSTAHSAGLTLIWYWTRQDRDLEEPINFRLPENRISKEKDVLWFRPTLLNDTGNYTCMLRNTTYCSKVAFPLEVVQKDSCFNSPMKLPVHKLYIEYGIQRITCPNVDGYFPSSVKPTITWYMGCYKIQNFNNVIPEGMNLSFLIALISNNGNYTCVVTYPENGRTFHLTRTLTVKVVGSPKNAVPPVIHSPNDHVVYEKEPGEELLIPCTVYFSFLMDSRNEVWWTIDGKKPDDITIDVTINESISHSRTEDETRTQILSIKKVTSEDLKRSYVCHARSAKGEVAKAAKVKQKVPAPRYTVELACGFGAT

T4: recombinant human IL1RAP ECD (human, UniProt Q9NPH3 21-367)
T4 construct: His-tagged; also called hIL1RAP-ECD; rhuIL1RAP
T4 sequence: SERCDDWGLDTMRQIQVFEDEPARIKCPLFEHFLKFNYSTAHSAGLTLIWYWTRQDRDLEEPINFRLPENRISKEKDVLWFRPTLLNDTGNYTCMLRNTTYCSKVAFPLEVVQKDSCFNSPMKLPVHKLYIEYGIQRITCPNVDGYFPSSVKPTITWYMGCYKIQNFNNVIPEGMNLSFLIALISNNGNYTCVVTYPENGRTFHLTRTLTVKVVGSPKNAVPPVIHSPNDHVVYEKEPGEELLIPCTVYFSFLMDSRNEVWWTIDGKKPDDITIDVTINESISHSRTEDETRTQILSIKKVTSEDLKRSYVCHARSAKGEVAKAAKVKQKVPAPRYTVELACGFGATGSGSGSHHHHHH

T5: mouse IL1RAP ECD displayed on HEK-293F cells (pDisplay) (mouse, UniProt Q61730 21-367)
T5 sequence: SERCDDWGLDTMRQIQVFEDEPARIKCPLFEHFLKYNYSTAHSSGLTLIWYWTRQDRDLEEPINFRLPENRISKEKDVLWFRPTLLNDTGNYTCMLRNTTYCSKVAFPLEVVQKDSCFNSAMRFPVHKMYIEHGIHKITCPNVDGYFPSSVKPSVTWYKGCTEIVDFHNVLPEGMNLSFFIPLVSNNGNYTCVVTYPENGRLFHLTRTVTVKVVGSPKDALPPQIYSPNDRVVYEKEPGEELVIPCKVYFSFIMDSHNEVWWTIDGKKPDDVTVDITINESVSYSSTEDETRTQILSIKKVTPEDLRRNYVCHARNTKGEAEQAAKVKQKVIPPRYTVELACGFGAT

T6: rat IL1RAP ECD displayed on HEK-293F cells (pDisplay) (rat, UniProt Q63621 21-367)
T6 sequence: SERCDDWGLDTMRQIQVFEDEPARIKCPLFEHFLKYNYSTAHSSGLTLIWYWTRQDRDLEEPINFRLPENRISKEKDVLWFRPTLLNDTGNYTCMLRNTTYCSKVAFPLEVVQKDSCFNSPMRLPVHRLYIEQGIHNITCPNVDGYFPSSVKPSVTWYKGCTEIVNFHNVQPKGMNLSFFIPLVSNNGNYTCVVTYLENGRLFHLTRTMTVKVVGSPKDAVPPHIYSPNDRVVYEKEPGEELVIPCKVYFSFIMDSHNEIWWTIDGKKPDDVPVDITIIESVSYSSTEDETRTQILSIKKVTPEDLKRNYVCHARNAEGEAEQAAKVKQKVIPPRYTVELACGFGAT


Legend:
[1] = target: T1, recombinant cyno IL1RAP ECD; test: recombinant protein
[2] = target: T2, cyno IL1RAP ECD displayed on HEK-293F …; test: HEK-293F cells (MSD)
[3] = target: T3, human IL1RAP ECD displayed on HEK-293F …; test: HEK-293F cells (MSD)
[4] = target: T4, recombinant human IL1RAP ECD; test: SPR (ProteOn)
[5] = target: T4, recombinant human IL1RAP ECD; test: SPR, summary
[6] = target: T4, recombinant human IL1RAP ECD; test: SPR (ProteOn); remark: listed apart in the source
Protocol: The rates of IL1RAP ECD association and dissociation were measured for each variant. The biosensor surface was prepared by covalently coupling Goat anti-Human IgG (Fc) to the surface of a GLC chip (BioRad) using the manufacturer instructions for amine-coupling chemistry. […] The RU immobilized also included a goat anti-mouse Fc antibody that was added to capture other antibodies not included in the ones reported here. Since the mixture was 1:1 about 50% of these RU immobilized are expected to be goat anti-human Fc. The kinetic experiments were performed at 25° C. in running buffer (PBS pH 7.4, 0.005% P20, 3 mM EDTA). […] (1:3) serial dilutions of human IL1RAP ECD, starting at 400 nM were prepared in running buffer. […] The reference spots (Goat anti-Human IgG (Fc)-modified surface) containing no candidate captured were used as a reference surface. Capture of mAb was followed by a 3 minute injection (association phase) of antigen at 40 μL/min, followed by 10 minutes of buffer flow (dissociation phase). […] Data was processed on the instrument software. Double reference subtraction of the data was performed by subtracting the curves generated by buffer injection from the reference-subtracted curves for analyte injections. Kinetic analysis of the data was performed using 1:1 Langmuir binding model with group fit.

[7] = target: T4, recombinant human IL1RAP ECD; test: SPR; KD against parent IAPB4
[8] = target: T5, mouse IL1RAP ECD displayed on HEK-293F …; test: HEK-293F cells (MSD)
[9] = target: T6, rat IL1RAP ECD displayed on HEK-293F …; test: HEK-293F cells (MSD)

Binder	binding result [1]	binding result [2]	binding result [3]	Kd [4] [nM]	koff [4] [s⁻¹]	kon [4] [M⁻¹ s⁻¹]	Kd [5] [nM]	Kd [6] [nM]	koff [6] [s⁻¹]	kon [6] [M⁻¹ s⁻¹]	Fold Different from parent [7] [fold]	binding result [8]	binding result [9]
IAPB62 (antibody, human IgG4 S228P, kappa, F234A L235A, V domains shown, IgG4-PAA; whole chains) VH: QVQLVQSGSELKKPGASVKVSCKASGYTFNTYAMNWVRQAPGQGLEWMGWINTNTGNPTYAQGFTGRFVFSLDTSVSTAYLQISSLKAEDTAVYYCARRYFDWLLGAFDIWGQGTMVTVSS VL: DIQMTQSPSSVSASVGDRVTITCRASQGISSWLAWYQQKPGKAPKLLIYAASSLQSGVPSRFSGSGSGTDFTLTISSLQPEDFATYYCQQANSFPLTFGGGTKVEIKR	binds	binds	binds										
IAPB04 (antibody, human IgG4 S228P, kappa, F234A L235A, V domains shown, IgG4-PAA; also called IAPB4; phage hit B4) VH: QVQLVQSGAEVKKPGSSVKVSCKASGGTFSSYAISWVRQAPGQGLEWMGGISAIFGTANYAQKFQGRVTITADESTSTAYMELSSLRSEDTAVYYCARHLHNGIHLDYWGQGTLVTVSS VL: EIVLTQSPATLSLSPGERATLSCRASQSVSNFLAWYQQKPGQAPRLLIYGASNRATGIPARFSGSGSGTDFTLTISSLEPEDFAVYYCQQGKHWPWTFGQGTKVEIKR	binds	binds		4.73	0.0014	295000	5.66	5.66	0.00144	255000	1		
IAPB38 (antibody, human IgG4 S228P, kappa, F234A L235A, V domains shown, IgG4-PAA; whole chains) VH: EVQLLESGGGLVQPGGSLRLSCAASGFTFSNYAMNWVRQAPGKGLEWVSGINYGGGSKYYADSVKGRFTISRDNSKNTLYLQMNSLRAEDTAVYYCAKDYGPFALDYWGQGTLVTVSS VL: EIVLTQSPATLSLSPGERATLSCRASQSVDDWLAWYQQKPGQAPRLLIYTASNRATGIPARFSGSGSGTDFTLTISSLEPEDFAVYYCQQYHHWPLTFGQGTKVEIKR	binds	binds	binds									binds	binds

From patent US20190270826A1 (Janssen / Centocor, published 2019)
